Values of other authors in publication PMC8758526.

How the values were obtained:
TREM-1 (Mus musculus) = TREM-1 (Mus musculus) (UniProt Q9JKE2)
TLR4 (Mus musculus) = TLR4 (Mus musculus) (UniProt Q9QUK6)
Chain of UniProt Q9QUK6 (Q9QUK6 26-835): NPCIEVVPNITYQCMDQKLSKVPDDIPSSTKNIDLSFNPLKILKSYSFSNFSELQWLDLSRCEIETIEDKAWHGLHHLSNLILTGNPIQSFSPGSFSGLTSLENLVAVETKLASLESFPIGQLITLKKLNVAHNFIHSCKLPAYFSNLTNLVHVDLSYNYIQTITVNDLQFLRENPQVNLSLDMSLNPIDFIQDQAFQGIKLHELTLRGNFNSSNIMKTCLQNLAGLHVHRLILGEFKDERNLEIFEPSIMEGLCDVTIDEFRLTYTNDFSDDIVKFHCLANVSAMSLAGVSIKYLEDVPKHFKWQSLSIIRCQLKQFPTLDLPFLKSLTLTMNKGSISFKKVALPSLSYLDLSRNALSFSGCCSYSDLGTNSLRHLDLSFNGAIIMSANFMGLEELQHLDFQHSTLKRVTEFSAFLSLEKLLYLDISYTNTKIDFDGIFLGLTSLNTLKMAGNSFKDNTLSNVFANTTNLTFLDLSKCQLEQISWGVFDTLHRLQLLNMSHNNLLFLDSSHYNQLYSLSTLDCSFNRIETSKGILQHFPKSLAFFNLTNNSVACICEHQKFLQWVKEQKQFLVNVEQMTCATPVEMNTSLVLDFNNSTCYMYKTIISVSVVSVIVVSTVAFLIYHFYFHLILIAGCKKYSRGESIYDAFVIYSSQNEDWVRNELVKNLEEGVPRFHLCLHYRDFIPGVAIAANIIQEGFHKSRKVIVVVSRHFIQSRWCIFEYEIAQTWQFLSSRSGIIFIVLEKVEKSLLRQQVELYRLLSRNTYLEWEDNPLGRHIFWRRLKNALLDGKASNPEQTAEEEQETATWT

Chain of UniProt Q9JKE2 (Q9JKE2 21-230): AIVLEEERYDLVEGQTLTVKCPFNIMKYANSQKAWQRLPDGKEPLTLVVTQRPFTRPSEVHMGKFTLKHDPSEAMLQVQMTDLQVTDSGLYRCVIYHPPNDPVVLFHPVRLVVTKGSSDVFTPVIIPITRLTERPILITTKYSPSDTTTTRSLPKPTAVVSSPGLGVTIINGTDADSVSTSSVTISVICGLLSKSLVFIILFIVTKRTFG

Substance: eCIRP (from UniProt P60824)
- Kd (TREM-1 (Mus musculus)): 117 nM
- Kd (TLR4 (Mus musculus)): 617 nM
